B1: HNANPF (protein, UniProt P52597 1-415, looked up)
Heterogeneous nuclear …: MMLGPEGGEGFVVKLRGLPWSCSVEDVQNFLSDCTIHDGAAGVHFIYTREGRQSGEAFVELGSEDDVKMALKKDRESMGHRYIEVFKSHRTEMDWVLKHSGPNSADSANDGFVRLRGLPFGCTKEEIVQFFSGLEIVPNGITLPVDPEGKITGEAFVQFASQELAEKALGKHKERIGHRYIEVFKSSQEEVRSYSDPPLKFMSVQRPGPYDRPGTARRYIGIVKQAGLERMRPGAYSTGYGGYEEYSGLSDGYGFTTDLFGRDLSYCLSGMYDHRYGDSEFTVQSTTGHCVHMRGLPYKATENDIYNFFSPLNPVRVHIEIGPDGRVTGEADVEFATHEEAVAAMSKDRANMQHRYIELFLNSTTGASNGAYSSQVMQGMGVSAAQATYSGLESQSVSGCYGAGYSGQNSMGGYD
B2: DBX3X: host protein, UniProt O00571 (protein, UniProt O00571 2-662, looked up)
ATP-dependent RNA helicase …: SHVAVENALGLDQQFAGLDLNSSDNQSGGSTASKGRYIPPHLRNREATKGFYDKDSSGWSSSKDKDAYSSFGSRSDSRGKSSFFSDRGSGSRGRFDDRGRSDYDGIGSRGDRSGFGKFERGGNSRWCDKSDEDDWSKPLPPSERLEQELFSGGNTGINFEKYDDIPVEATGNNCPPHIESFSDVEMGEIIMGNIELTRYTRPTPVQKHAIPIIKEKRDLMACAQTGSGKTAAFLLPILSQIYSDGPGEALRAMKENGRYGRRKQYPISLVLAPTRELAVQIYEEARKFSYRSRVRPCVVYGGADIGQQIRDLERGCHLLVATPGRLVDMMERGKIGLDFCKYLVLDEADRMLDMGFEPQIRRIVEQDTMPPKGVRHTMMFSATFPKEIQMLARDFLDEYIFLAVGRVGSTSENITQKVVWVEESDKRSFLLDLLNATGKDSLTLVFVETKKGADSLEDFLYHEGYACTSIHGDRSQRDREEALHQFRSGKSPILVATAVAARGLDISNVKHVINFDLPSDIEEYVHRIGRTGRVGNLGLATSFFNERNINITKDLLDLLVEAKQEVPSWLENMAYEHHYKGSSRGRSKSSRFSGGFGARDYRQSSGASSSSFSSSRASSSRSGGGGHGSSRGFGGGGYGGFYNSDGYGGNYNSQGVDWWGN

What was measured:
[1] = tested on: gRNA of HCoV-OC43; type: binding; conditions: type n_48_v: 48 hours post-infection, no-probe control on infected cells
[2] = tested on: HCoV-OC43 gRNA and sgRNA; type: binding; conditions: type s_36_m, 36 hpi, Probe II

Molecule | background (spectral count, no-probe control) [1] | target (spectral count) ([2]; HCoV-OC43-infected HCT-8 cells) | background (spectral count) ([2]; uninfected-probe control)
B1 | 4 |  | 
B2 |  | 7 | 1

From patent US20230407373A1 (priority 2020, published 2023)
